Assay results published in the DeepSol protein solubility set.

Assay: soluble on expression in E. coli; label from the status in PepcDB or PDB records

| Sequence | soluble on expression in E. coli |
| --- | --- |
| MTENFFGKTLAARPVEAIPGMLEFDIPVHGDNRGWFKENFQKEKMLPLGFPESFFAEGKLQNNVSFSRKNVLRGLHAEPWDKYISVADGGKVLGTWVDLREGETFGNTYQTVIDASKSIFVPRGVANGFQVLSDFVAYSYLVNDYWALELKPKYAFVNYADPSLDIKWENLEEAEVSEADENHPFLKDVKPLRKEDL | soluble |
| MTEPIKEIAAKRSVEAVYTGGTVRWSANGQKLFSTCTNVVKVIDLADNTASYTIGDPEDELRITCTAVDKNRNRLLVAYNNQIIREYSIPLDPSTTKPELARTWKTIHTAPILVMEFNEEGHLLATGSADHIVKVWNLTEQQCTHTLKGPSVVSAILFGKHEKLVVGYIEGQLNLYNIMRGAPKKLVNTWKSHNSHITALLQVPDSRVVVALSRDQTMSIHETETQETLRVLPLYESIEGGAIGHNGNLFTVGEEGVVKEFVIETAKLVRKKRIASSNLDHLAYDVVSNRFLAISAEQNLIILDFENLKIARQIVGFHDEIYSCCLLGKDESHMAVASNTSEIRLYNTKTLDCQLIRGHTESVLSVVSPTWDTSLLASCSKDNSIIFWRLVTSPENDSCSTLVPVAAATGHANTVTALAISNTGRAPFLASVSTDCTIKLWGLGVSTKLKEVKIDAEKDFVEQLPKLTCSSTMVAHGKDVNCVDISESDALIATGGMDKLVKLWQVDTHKMQLGIAGTLSGHRRGVGDVKFAKNSHKLASCSGDMTIKIWNISEKSCLQTISGHSCAVFRVIFARNDSQLISADSAGIIKIWTIKTADCECSIDAHTDKIWSLSKNHNESEFVTAGTDGRIVVWKDVTEEKQKAEDNKRREAIEQDQTLTNLLSQKRYSEALVFALTLAKPFCAFKVINALMAEETPEELGSAIRRLDTRQIEILLQFTVKWNTNSRTSSVAQRVLYEIVHIVDPEELVSMPGAYGYIESFLPYTQRHMDRLDRAKQDVSLFDFVWRQMRSSV | not soluble |
| MTEQERLELEAAAFRRLVAHLDSRKDVQNIDLMNLSGFCRNCLSKWYKAAADEKHIDITLDDAREVVYGMPYSEWKANYQKEASAEQQAAFVKESKHD | soluble |
| MTERKPEVIITYCTQCQWLLRAAWLAQELLSTFSDDLGKVSLEPATGGAFRITCDGVQIWERKADGGFPEAKVLKQRVRDQIDPERDLGHNDRTQLEHHHHHH | soluble |
| MTESDVDSGSKKYLSNHKGIFIHVTLEELKRYHQLTPEQKRLIRAIVKTLIHNPQLLDESSYLYRLLASKAISQFVCPLCLMPFSSSVSLKQHIRYTEHTKVCPVCKKEFTSTDSALDHVCKKHNICVS | soluble |
| MTESEIHERFVDTYMHILKYVGDFVSVPTRPYKITFEAYTVMRMIATSEEPLTLVKIAKEQRVSRSAIARQINVLLDLKYIEQTTNTHDRRIKYLSLTPAGHKVEQEITTASEERFHQWVQVYGEKRASDTLRYINDAEQKATELGFSGFSGLHDKRGRHTEYSDPKTKN | not soluble |
| MTESFAQLFEEFLNETQFQQGTIVKGTVVAIENGYVLVDAGLKSESAIPAEQFKNAAGELEVQVGSQVDVALDAVEDGFGETQLSREKAKRHEAWIVLEKAYEEAATVIGIINGKVKGGFTVELNGIRAFLPGSLVDVRPIRDTAHLENKELEFKVIKLDQKRNNVVVSRRAVIESESSVERDELLETLQEGTEVKGIVKNLTDYGAFVDLGGVDGLLHITDMAWKRVKHPSEIVNVGDEILVKVLKFDRDRTRVSLGLKQLGEDPWVAIAKRYPEGHKLSGRVTNLTDYGCFVEIEEGVEGLVHVSEMDWTNKNIHPSKVVNVGDEVEVMVLDIDEERRRISLGLKQCKANPWQSFAEAQAKGDKVTGKIKSITDFGIFIGLEGGIDGLVHLSDISWNVPGEEAVREFKKGDEISAVVLAVDAERERISLGIKQMENDPFNAYVSDNKKGALVNGTVTAVDAKGATIELEDGVEGYIRASEVSRDRIEDASLILNVGDKVEAKFTGVDRKNRVINLSIKAKDEAEEQEVMATLNKQDEAAFGNAMADAFKAAKGELEHHHHHH | not soluble |
| MTEVKAMTKFYDVTFQELSGRSVVKTEVASDREPFDVWQDACASYSETELNIQINEDTFVTLNRHFVVRIDVKEVDGPVDKQVRRRDELMNVVNTLSNMGL | soluble |
| MTEYERPQTPGVVTHDAVVLAGGAARRLGGADKPGVRVGGRALLDRVLAACAGAATTVVVADPRATARPVVWAREEPPGAGPVAALDAGLRRTTAAYVVVLSADLPFLDEETVRRLLSTLQASGTEGVLLTDPGGRDQPLVAAYRSAALRRELAELAAGHGTLAGLPLRVLVAALDLTRVSDPVASFDCDTWDDIAAARSRIREHGNVLDEWISAVKDELGIDLAVDTGILLDLARDAAHGVARPAAPLTTFLVGYAAAQAGGGPEAVAEAARKAAALALRWADEAAAEAGPDAGLEHHHHHH | not soluble |
| MTEYIQDAIPAKLAIAIANPIFPQLDSQLRAGRHISIEMLDEHAFLMDFQTELESFYRRYHVDLIRAPEGFFYLRPKASTLIARSAMSEMEMLVGKVLCYLYLSPERLAQQGIFSQDDVYEELLNLADENKLLKAVNPRSTGSDLDRAKLAEKVGGALRRLARIGIITRVGEQNSKKFIISEAVFRFGADVRAGDDPREVQLRLIRDGEATTPTLLTTEAIEFAEDGARDELEESEAELEHHHHHH | soluble |
| MTEYNNNFDRELGWDDEITQDSVGFVQLVPGDYQFTVTNMERARHTPNPKSPGKLPACNKAVVTIQIETSEGIAQLTHNLFLHTTTEGMLSAFFGAIGQKKHGEPLKMNWNTVIGAKGVARINKRKGTGDYADREYDNIKSMIYADEVDWTKVLNKDVAQPQQMTHQQSAQPTYQGQQAQGTNFAQQPATQSYQQGQMQTPQQPQGGWGGF | not soluble |
| MTFSCEPAELRSRAKAAFIGLAVGDALGAPVEFMTTGEIKAKHGVLREIVGGGWLRLKPGQVTDDTDMSLCVARGVAKAGEWNLTAIAEEFAAWLRSKPVDVGDTCRRGIRNYMLKGLLETPFNQWDAGNGAAMRMLPTALFTMGDDNLLCRCAVEQGHLTHNHPLSDAACITLGRLVHLSVLGFSKPRLRREADRLTESHPTFSFEPYRGLATGYVVDTMQTVLHFFFRGRDFEECLVSTVNQGGDADTTGAIIGMVAGAYYGMEEIPRRWLKKMDRQVLDEIDTLSDLLISLSPALRSGNGILLPPA | not soluble |
| MTGERIEKVKINDEFAKSHFLTTQWRETKRQRHYKMPVTEQGLRERIESAIPQVYHIIVTDLSYGCGQSFDIVVVSDFFQGKSKLMRSRAVNKAVKEELQEIHAFSCKCYTEEEWSKIVV | soluble |
| MTGNSFNSMKDFLKQTGGYAVIDGGLATEFERHGADLNDPLWSAKCLVTSPHLIHTVHLDYLEAGADIISSASYQATIQGFEAKGFSREESESLLKKSVEIATEARNSYYDKCGTSSSMDDKILKKRPILVAASVGSYGAYLADGSEYSGIYGDSITLEKLKDFHRRRLQVLAESGADLIAFETIPNKIEAQAFADLLEEGDVKIPGWFSFNSKDGVNVVSGDSIKECISIAENCEKVVAVGINCTPPRFIEGLVLEIEKVTSKPILVYPNSGESYDADRKEWVENTGVGDEDFVSYVEKWMDAGVSLLGGCCRTTPTTIRAIHKRLVNRRSL | soluble |
| MTGTVYKLFGNRLLNARNQLDKNLLEMAMQMVYGKDMVTKSGDILIDIQLNKDGSLQSKHYTLDVGEVINSYNIDPLCECFKY | not soluble |
| MTGVVTASKGLNVRKEANTSSQIIGILNSGESVEIIGEENGFYKITYKGQEAYASKNYINIFDGNSLEHHHHHH | not soluble |
| MTIAIVIGTHGWAAEQLLKTAEMLLGEQENVGWIDFVPGENAETLIEKYNAQLAKLDTTKGVLFLVDTWGGSPFNAASRIVVDKEHYEVIAGVNIPMLVETLMARDDDPSFDELVALAVETGREGVKALKAKPFAG | soluble |
| MTIAVDFDGTIVEHRYPRIGEEIPFAVETLKLLQQEKHRLILWSVREGELLDEAIEWCRARGLEFYAANKDYPEEERDHQGFSRKLKADLFIDDRNVGGIPDWGIIYEMIKEKKTFADIYSQQREENTSQKKKRKWLPF | soluble |
| MTIDNYDNSKQDSSKYEVSGTGDGRNGDGGLPLVQCVARARIPTTQGPDIFLHLYSNNRDNKEHLAIVFGEDIRSRSLFRRRQCETQQDRMIRGAYIGKLYPGRTVADEDDRLGLALEFDDSTGELLASKATTWDAHNDTLVRIHSECYTGENAWSARCDCGEQFDRAGRLIACDHEPTSNIKGGNGHGVIVYLRQEGRGIGLGEKLKAYNLQDLGADTVQANLMLKHPVDARDFSLGKAILLDLGIGNVRLLTNNPEKIKQVDHAPYLKCVERVPMVPIHWTNSSEGIDSKEIEGYLRTKIERMGHLLTEPLKLHTNPQPTETSEAQNQNRMNSALSSTSTLAI | soluble |
| MTIEGGEQEVNVSSGGAWQSSIHCDWMTLSPSSGGIGITKVRIKVKKNTSGLPRNGRIAIISGKEEKGITVMQSSIEGEEDYLRLLNLTIDGVTTAVDYVNNSYYLPIDMDAVQPAKVKVEFGGIGVDFIKIGDKKIKSGENIALSLNPGQNIEMEAGNNTIDKIRSCRLIVTGVPVIEISAPEGIEDENKRPCDIVLTDPKRRTNNSVLRFESYAGIEFRGAGALRYAKKSFSFKLKNRQTNENQDAKLLGLREDQSWILDAMWLDCSKMRNRVCFDLWNDFNTLYYSNTEPEAVNATHGYPVEMILDGAYHGLYILSDRIDRKQLKMKKKGGYLYKGKEWTDECKLQGINTPYSNSKQAWQGFESDYPDEVGEIEFKYLSDLIQFFAAASKEEFAAQYEERLDVSSLIDYFIFINLLSAYDNTGRNVFWGIYNVNLTLLPKFIIQPWDLDGTLGRTWDAIKLDPEKGLGFDNGLILRNDAGSKYFRPFERIMNENPNNIKRRIYERLMAVKDNVLSPANLASKVDYYKRQIVESGALERDRQRWTGYSMYGYANPEEEAEYIKSWYIARLKYLETIFNNF | not soluble |
| MTIFRPGLLTTIQDLGRTGYLKYGVIVSGPMDEYAHRMANLLVGNDEKAALLEMTFIGPTIQFTSDQLIAMTGGDLSPTIDGHSVPMYRPVFVKKGAVLSFGRCKTGCRSYLAIGGGIDVPKVMNSRSTYLRAKIGGFQGRALVEGDELICGAPPEQTERLVKTCQKGIVHSFATTKWSVVSSQRSRDGAEKVVRVTVGSHYEQFSEASQHKFFSETFQVTSKSDRMGYRLKGPTLERLEEQELISEPISVGTIQVPADGNPIILMADRQTTGGYPRIAHVIAVDLPIIAQAKPGAAIRFQQASLKEAERLYIRRAREFNELKTSIYLQTRLEHHHHHH | not soluble |
| MTIKIALLGFGTVAKGIPYLLKENQHKLLSLEGEDIVIDKVLVRDNESRQRFINQGFTYNFVTEINTILQDSQIDIVVELMGGIEPAKTYLSQALGFGKHIVTANKDLIALHGKELMDLADARGLALFYEGAVAGGIPILRTLSHSFASDKMTRLLGILNGTSNFMLTKMFEEGWSYEQALKKAQELGYAESDPTNDVEGIDTAYKATILSQFGFGMPIDFDDVNYKGISSIRSEDVEVAQEMGFAIKLVADLRETPTGISVDVSPTLISQKHPLAAVNHVMNAVFIESIGIGQSLFYGPGAGQNPTATSVLADIIDISRSIRSQIKIKPMNTYHCPCRLSMQSDIFNEYYLAISLRNAEDSDTLGRYFEQENIGLKNVIEKALGDKQQEIYVLTDEVSQEKITQFIEEFPESGVIQLINVFKVIGGLEHHHHHH | soluble |
| MTIKKSQIEKWIAAQKRHRLSDTHVQMARELGLNPDKLGKIDNHRQEPWKAPLPEFIEEIFYKRFKKERPDVVKPLKQILKEQEIKTKTKKKEKEIRRKEREQEQINNGTDEVLTFQSPTPITE | not soluble |
